How the values were obtained:
Experiment in all cases: SPR; ProteOn XPR36, HC30M chip; IgG captured at low density (about 50 to 100 RU) by anti-human IgG (Fc) antibody, trimer flowed as analyte, highest concentration 3 µM; 1x HBS-EP+ pH 7.4 with BSA 1 mg/ml
[1] = target: BG18 inferred germline IgG, Asp at the (D3-3)+2 position (human)
[2] = target: BG18 inferred germline IgG, Glu at the (D3-3)+2 position (human)
[3] = target: BG18 inferred germline IgG, Gly at the (D3-3)+2 position (human)
Sequence of BG18 inferred germline IgG, Gly at the (D3-3)+2 position (human) (heavy, as listed by the source, chain 1 of 2): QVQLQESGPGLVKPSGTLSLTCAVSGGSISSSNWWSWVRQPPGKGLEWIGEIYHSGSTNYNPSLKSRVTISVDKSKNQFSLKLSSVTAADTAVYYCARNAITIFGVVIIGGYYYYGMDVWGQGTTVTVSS
Sequence of BG18 inferred germline IgG, Gly at the (D3-3)+2 position (human) (light, as listed by the source, chain 2 of 2): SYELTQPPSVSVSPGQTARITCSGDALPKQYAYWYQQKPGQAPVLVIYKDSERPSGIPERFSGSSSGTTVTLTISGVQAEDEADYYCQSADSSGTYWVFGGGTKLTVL

Sequence of BG18 inferred germline IgG, Glu at the (D3-3)+2 position (human) (heavy, as listed by the source, chain 1 of 2): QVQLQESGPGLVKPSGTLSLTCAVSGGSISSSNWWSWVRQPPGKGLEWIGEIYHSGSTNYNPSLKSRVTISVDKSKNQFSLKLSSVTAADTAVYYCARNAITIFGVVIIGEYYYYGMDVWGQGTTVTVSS
Sequence of BG18 inferred germline IgG, Glu at the (D3-3)+2 position (human) (light, as listed by the source, chain 2 of 2): as the sequence (light, as listed by the source, chain 2 of 2) above
Sequence of BG18 inferred germline IgG, Asp at the (D3-3)+2 position (human) (heavy, as listed by the source, chain 1 of 2): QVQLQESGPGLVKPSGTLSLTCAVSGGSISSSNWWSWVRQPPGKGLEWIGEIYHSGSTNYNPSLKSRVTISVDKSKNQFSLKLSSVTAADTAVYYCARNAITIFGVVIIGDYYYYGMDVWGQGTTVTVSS
Sequence of BG18 inferred germline IgG, Asp at the (D3-3)+2 position (human) (light, as listed by the source, chain 2 of 2): as the sequence (light, as listed by the source, chain 2 of 2) above

“N332-GT5 trimer (BG505_MD65_congly_N332-GT5)” showed a Kd [1] of 39 nM, a Kd [2] of 0.7 nM and a Kd [3] of 1790 nM.
